# According to article PMC10718286:
# System: C[S+](CC[C@H](N)C(=O)O)C[C@H]1O[C@@H](n2cnc3c(N)ncnc32)[C@H](O)[C@@H]1O
# Assay: purified protein
# Details: catalytic SET domain; varied: cofactor
substance,measurement,value
"SETDB1 (full-length, SETDB1-FL) (Homo sapiens)",kcat,8.06e-05 s⁻¹
same,kcat/Km,88.9 M⁻¹ s⁻¹
